We go through one variant from IntAct's records for PubMed 17070805.

First the molecules themselves.
B1: RING1 and YY1-binding protein (Homo sapiens), Q8N488 (parent)
chain: MTMGDKKSPTRPKRQAKPAADEGFWDCSVCTFRNSAEAFKCSICDVRKGTSTRKPRINSQLVAQQVAQQYATPPPPKKEKKEKVEKQDKEKPEKDKEISPSVTKKNTNKKTKPKSDILKDPPSEANSIQSANATTKTSETNHTSRPRLKNVDRSTAQQLAVTVGNVTVIITDFKEKTRSSSTSSSTVTSSAGSEQQNQSSSGSESTDKGSSRSSTPKGDMSAVNDESF

In the first assay the parent is B1. The settings on record: with ubc_human UBC.
As to MTMGDKKSPTRPKRQAKPAADEGFWDCSVCAARNSAEAFKCSICDVRKGTSTRKPRINSQLVAQQVAQQYATPPPPKKEKKEKVEKQDKEKPEKDKEISPSVTKKNTNKKTKPKSDILKDPPSEANSIQSANATTKTSETNHTSRPRLKNVDRSTAQQLAVTVGNVTVIITDFKEKTRSSSTSSSTVTSSAGSEQQNQSSSGSESTDKGSSRSSTPKGDMSAVNDESF [T31A;F32A], the “effect of a mutation on the interaction” value was “disrupting interaction”.

In another assay the parent is B1. The settings on record: with ubc_human UBC. This is another data set of the same source.
As for MTMGDKKSPTRPKRQAKPAADEGFWDCSVCAARNSAEAFKCSICDVRKGTSTRKPRINSQLVAQQVAQQYATPPPPKKEKKEKVEKQDKEKPEKDKEISPSVTKKNTNKKTKPKSDILKDPPSEANSIQSANATTKTSETNHTSRPRLKNVDRSTAQQLAVTVGNVTVIITDFKEKTRSSSTSSSTVTSSAGSEQQNQSSSGSESTDKGSSRSSTPKGDMSAVNDESF [T31A;F32A], the “effect of a mutation on the interaction” value is “disrupting interaction”.

The next assay covers variants of B1. The settings on record: with RING1, Q06587-2.
Sequence of RING1, Q06587-2 (Q06587 30-406): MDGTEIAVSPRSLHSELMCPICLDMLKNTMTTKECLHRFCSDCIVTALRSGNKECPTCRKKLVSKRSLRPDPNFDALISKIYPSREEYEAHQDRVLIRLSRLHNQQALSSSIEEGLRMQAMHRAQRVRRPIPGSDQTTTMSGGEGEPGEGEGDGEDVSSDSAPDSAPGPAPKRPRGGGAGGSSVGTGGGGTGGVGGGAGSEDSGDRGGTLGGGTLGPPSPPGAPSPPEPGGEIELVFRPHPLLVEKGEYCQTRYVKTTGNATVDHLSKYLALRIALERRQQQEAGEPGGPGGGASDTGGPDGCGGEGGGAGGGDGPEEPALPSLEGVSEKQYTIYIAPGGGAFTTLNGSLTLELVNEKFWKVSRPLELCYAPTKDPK
In the case of MTMGDKKSPTRPKRQAKPAADEGFWDCSVCAARNSAEAFKCSICDVRKGTSTRKPRINSQLVAQQVAQQYATPPPPKKEKKEKVEKQDKEKPEKDKEISPSVTKKNTNKKTKPKSDILKDPPSEANSIQSANATTKTSETNHTSRPRLKNVDRSTAQQLAVTVGNVTVIITDFKEKTRSSSTSSSTVTSSAGSEQQNQSSSGSESTDKGSSRSSTPKGDMSAVNDESF [T31A;F32A], the “effect of a mutation on the interaction” value is “disrupting interaction”.
